Source: patent publication US10172917B2, “Targeted oesophageal administration of ZN-α2-glycoproteins (ZAG), methods and formulations thereof” (ASTON UNIVERSITY, priority 2012, dated 2019)

Key:
ob/ob mice [1] = assay: Oral ZAG in drinking water to ob/ob mice: body weight, rectal temperature, urinary glucose excretion; format: in vivo, mouse
Protocol: Obese (ob/ob) mice (average weight 65 g) were bred in a colony, and were kept in an air conditioned room at 22+2° C. with ad libitum feeding of a rat and mouse breeding diet (Special Diet Services, Witham, UK) and tap water. […] Animals were grouped (n=5) to receive either ZAG/PBS (50 μg day^−1), or PBS in their drinking water, the experiment was repeated three times after a power analysis was performed. […] The ZAG was replaced every 48 h. […] The dose of ZAG was chosen to be the same as that previously administered i.v. (1), so that a direct comparison could be made, between the two routes. Body weight, food and water intake, urinary glucose excretion, and body temperature, determined by the use of a rectal thermometer (RS Components, Northants, UK), were measured daily. A glucose tolerance test was performed on day 3. Animals were fasted for 12 h, followed by oral administration of glucose (1 gkg^−1 in a volume of 100 μl by gavage). Blood samples were removed from the tail vein at 15, 30, 60 and 120 min and used for the measurement of glucose. Urinary glucose was measured by collecting 0.5 ml urine and testing glucose concentration using a Boots glucose monitor. After 8 days of treatment the animals were terminated by cervical dislocation, tissues were removed and rapidly frozen in liquid nitrogen, and maintained at −80° C. Future work would be to repeat this work in diet-induced animals as alternative to a model with gene alteration, although previous studies have shown the ob/ob mouse to be a good indicator of potential human treatments. Animal studies were conducted under Home Office Licence according to the UKCCCR Guidelines for the care and use of laboratory animals.

ob/ob mice [2] = assay: Oral glucose tolerance test in ob/ob mice after 3 days of oral ZAG; format: in vivo, mouse
Protocol: Animals were grouped (n=5) to receive either ZAG/PBS (50 μg day^−1), or PBS in their drinking water, the experiment was repeated three times after a power analysis was performed. […] The ZAG was replaced every 48 h. One group of mice receiving ZAG were also administered propanolol (40 mgkg^−1, p.o.) daily. The dose of ZAG was chosen to be the same as that previously administered i.v. (1), so that a direct comparison could be made, between the two routes. Body weight, food and water intake, urinary glucose excretion, and body temperature, determined by the use of a rectal thermometer (RS Components, Northants, UK), were measured daily. A glucose tolerance test was performed on day 3. Animals were fasted for 12 h, followed by oral administration of glucose (1 gkg^−1 in a volume of 100 μl by gavage). Blood samples were removed from the tail vein at 15, 30, 60 and 120 min and used for the measurement of glucose. Urinary glucose was measured by collecting 0.5 ml urine and testing glucose concentration using a Boots glucose monitor. After 8 days of treatment the animals were terminated by cervical dislocation, tissues were removed and rapidly frozen in liquid nitrogen, and maintained at −80° C. […] Animal studies were conducted under Home Office Licence according to the UKCCCR Guidelines for the care and use of laboratory animals.

human β2-AR = target: T1, human β2-AR (Homo sapiens, UniProt P07550); assay: Cyclic AMP production in CHO cells transfected with human β2-AR; format: cell-based; conditions: 30 min incubation
T1 construct: expressed in transfected cells; host or cells: CHOK1 (CHO-K1) cells
Protocol: (§1) FIG. 3C is a graphical representation of the effect of a tryptic digest of ZAG in comparison with intact ZAG on cyclic AMP production by CHO cells transfected with human β1-AR (▪), β2-AR(□) and β3-AR) ( ? ) after 30 min incubation. ZAG (1 mg) was incubated with trypsin (200 μg) in 1 ml 10 mM Tris.HCl, pH8 for 4 h at 37° C. and proteolysis was terminated by addition of the trypsin inhibitor (200 μg). High molecular weight material was removed by a Sephadex G25 column followed by dialysis using an Amicon filtration cell containing a 10 kDa cut-off membrane filter.
(§2) CHOK1 cells transfected with human β1-, β2- and β3-AR were maintained in DMEM supplemented with 2 mM glutamine, hygromycin B (50 μgml^−1), G418 ([…]) and 10% FCS, under an atmosphere of 10% CO2 in air. For cyclic AMP production cells were grown in 24-well plates in 1 ml nutrient medium, and ZAG, after tryptic digestion as described in the legend to FIG. 3C, was incubated for 30 min. The medium was then removed and 0.5 ml of 20 mM HEPES, pH7.5, 5 mM EDTA and 0.1 mM isobutylmethylxanthine was added, followed by heating on a water bath for 5 min, and cooling on ice for 10 min. The concentration of cyclic AMP was determined using a Parameter cyclic AMP assay kit (New England Biolabs, Hitchin, Herts, UK).

murine ZAG = assay: Western blotting of murine ZAG in serum and WAT of ob/ob mice; format: in vivo, mouse; conditions: ob/ob mice dosed orally with human ZAG for 8 days, anti-mouse ZAG antibody
Protocol: Tissues were thawed, washed in PBS and lysed in Phosphosafe™ Extraction reagent for 5 min at room temperature, followed by sonication at 4° C. Cytosolic protein (5-20 ug) formed by centrifugation at 18,000 g for 5 min at 4° C., was resolved on 12% SDS PAGE by electrophoresis at 180V for about 1 h. To determine ZAG in serum 30 μl samples containing 20 μg total protein were electrophoresed as above. Protein was transferred to 0.45 μm nitrocellulose membranes, which had been blocked with 5% (w/v) non-fat dried milk (Marvel) in Tris-buffered saline, pH 7.5, at 4° C. overnight. Membranes were washed for 15 min in 0.1% Tween 20 buffered saline prior to adding the primary antibodies. Both primary and secondary antibodies were used at a dilution of 1:1000. Incubation was for 1 h at room temperature, and development was by ECL. Blots were scanned by a densitometer to quantify differences.

β3-AR [3] = target: T2, β3-AR (Homo sapiens, UniProt P13945); conditions: high affinity binding site on the β3-AR; previous studies; cited from earlier work
T2 sequence (P13945 whole entry): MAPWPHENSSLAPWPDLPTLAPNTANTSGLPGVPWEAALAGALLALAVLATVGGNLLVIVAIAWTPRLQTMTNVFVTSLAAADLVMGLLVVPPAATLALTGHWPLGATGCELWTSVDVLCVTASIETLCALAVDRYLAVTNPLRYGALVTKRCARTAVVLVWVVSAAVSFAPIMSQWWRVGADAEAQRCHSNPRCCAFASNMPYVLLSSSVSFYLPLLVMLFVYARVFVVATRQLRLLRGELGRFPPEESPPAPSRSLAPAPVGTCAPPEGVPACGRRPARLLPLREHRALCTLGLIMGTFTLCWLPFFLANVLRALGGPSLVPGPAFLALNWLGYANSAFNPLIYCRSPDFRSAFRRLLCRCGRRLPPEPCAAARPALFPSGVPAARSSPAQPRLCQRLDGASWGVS

rats = rats treated with ZAG; cited from earlier work
BAT of ob/ob mice = conditions: ob/ob mice after ZAG administration; cited from earlier work
β3-AR [4] = target: T2, β3-AR; assay: Cyclic AMP production in CHO cells transfected with human β3-AR; format: cell-based; design: expressed in transfected cells; host or cells: CHOK1 (CHO-K1) cells; conditions: 30 min incubation
Protocol: as §1, §2

[5] = 50 μg day^−1 po in drinking water

B1: zinc-α2-glycoprotein (protein, listed as Homo sapiens)
chain: QENQDGRYSLTYIYTGLSKHVEDVPAFQALGSLNDLQFFRYNSKDRKSQPMGLWRQVEGMEDWKEDSQLQKAREDMETLKDIVEYYNDSNGSHVLQGRFGCEIENNRSSGAFWKYYYDGKDYIEFNKEIPAWVPFDPAAQITKQKWEAEPVYVQRAKAYLEEECPATLRKYLKYSKNILDRQDPPSVVVTSHQAPGEKKKLKCLAYDFYPGKIDVHWTRAGQVQEPELRGDVLHNGNGTYQSWVVVAVPPQDTAPYSCHVQHSSLAQPLVVPWEAS
notes: Recombinant human ZAG, a 41 kDa protein, produced by HEK293F cells transfected with pcDNA3.1 containing human ZAG
With B1 the “increase in rectal temperature” value (ob/ob mice [1]; [5]) was 0.5 °C, the “reduction in urinary glucose excretion” value (ob/ob mice [1]; [5]) was 40% and the “loss of body weight / difference in body weight between ZAG and PBS groups” value (ob/ob mice [1]; 50 μg day^−1 po in drinking water, after 8 days treatment) was 5 g. The “difference in body weight between the ZAG and PBS groups” value (ob/ob mice [1]; 50 μg per day in drinking water, after 5 days of treatment) was 3.5 g, the “time of treatment after which increase in rectal temperature became significant” value (ob/ob mice [1]; oral ZAG 50 μg per day) was 4 days and the “time of treatment after which reduction in urinary glucose excretion became significant” value (ob/ob mice [1]; oral ZAG 50 μg per day) was 1 days. For the same molecule, the “insulin response to the glucose challenge” value (ob/ob mice [2]; after 3 days of oral ZAG) was “decreased the insulin response”, the “peak blood glucose concentration in glucose tolerance test” value (ob/ob mice [2]; after 3 days of oral ZAG) was “reduced peak blood glucose concentration” and the “reduction in the total area under the curve (AUC) during oral glucose tolerance test” value (ob/ob mice [2]; after 3 days of oral ZAG, glucose 1 gkg^−1 po after 12 h fast) was 33%. The sensitivity to insulin (ob/ob mice [2]; oral ZAG 50 μg day^−1) was “increased sensitivity to insulin”, the “cyclic AMP production” value (human β2-AR) was “stimulated” and the “elevation of murine ZAG in serum” value (murine ZAG) was “two-fold”. For the same molecule, the “elevation of murine ZAG in serum” value (murine ZAG; listed as human ZAG) was 2 fold, the Bmax (β3-AR [3]) was 282±1 fmole mg protein^−1 and the Kd (β3-AR [3]) was 78 ± 45 nM. The “rise in body temperature” value (rats) was 0.4 °C, the “increase in oxygen uptake by BAT” value (BAT of ob/ob mice) was “three-fold” and the “cyclic AMP production” value (β3-AR [4]) was “stimulated”.
